Test results reported in US20140359899A1.

System: T1, OC[C@H]1O[C@@](CO)(O[C@H]2O[C@H](CO)[C@@H](O)[C@H](O)[C@H]2O)[C@@H](O)[C@@H]1O
T1 construct: Primers for the full length ORF of AtSWEET11 (AtSWT11FattB1 and AtSWT11attB2) or AtSWEET12; expressed in transfected cells; host or cells: Xenopus oocytes injected with capped cRNA from pOO2-GW
Assay: Oocyte uptake assay: [14C]-sucrose uptake in Xenopus oocytes expressing AtSWEET12
Format: cell-based, Arabidopsis
Conditions: other: Xenopus oocytes; FIG. 1F

Chain of AtSWEET12 (Arabidopsis thaliana) (chain, as listed by the source): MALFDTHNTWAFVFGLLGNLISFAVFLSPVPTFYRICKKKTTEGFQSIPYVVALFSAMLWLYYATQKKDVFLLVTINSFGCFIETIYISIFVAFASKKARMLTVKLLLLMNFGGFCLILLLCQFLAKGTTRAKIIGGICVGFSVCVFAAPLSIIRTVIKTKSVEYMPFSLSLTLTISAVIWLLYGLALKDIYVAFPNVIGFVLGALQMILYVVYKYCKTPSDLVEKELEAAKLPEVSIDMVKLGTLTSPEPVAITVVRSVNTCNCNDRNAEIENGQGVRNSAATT

Question: Which Km does the source give for AtSWEET12 (Arabidopsis thaliana) here?
Answer: 70 mM
